{
  "source": "patent US12241094B2",
  "about": "“Phenazine degrading agents and related compositions, methods and systems for interfering with viability of bacteria” (priority 2016, dated 2025)",
  "type_in_all_cases": "cell-based",
  "key": {"[1]": {"system": "P. aeruginosa biofilm aggregates", "test": "Biofilm aggregates embedded in agar blocks (anoxic fitness)", "details": "22 hours growth then 5 hour treatment, 2 μg mL^−1; ~300 μm and deeper below agar surface", "description": "Biofilm aggregate experiments. To test the effect of oxygen limitation in the presence of PodA30-162, biofilm aggregates were grown embedded in 0.5% noble agar blocks containing succinate minimal medium. Cultures were grown overnight to stationary phase in LB, washed once with succinate minimal medium, and resuspended to OD600 1.0. Samples were diluted 1:100 in agar at 44° C. and 175 μL was transferred to Nunc Lab-Tek chambered coverglass slides (8-well, 0.7 cm^2 area, supplier #155409). […] SYTO-9 from the LIVE/DEAD stain kit was used in place of DAPI to minimize background fluorescence. […] Biomass was quantified in ImageJ software (60) by identifying the Z-slice with the highest average fluorescent intensity (generally […] the agar surface), and setting the pixel threshold using the default ImageJ thresholding parameters at the Z-slice equivalent to the 100 μm depth. The number of particles in each slice of the Z-stack was determined using this threshold value and counting particles >10 μm^2 in area. […] Particle numbers for each slice were averaged between independent experiments and plotted against depth to quantify biofilm aggregates. […]\nOxygen diffusion modeling. […] Given these values, average cell number per mL was estimated by dividing the volume of total detected biofilm aggregates by the average volume of a P. aeruginosa cell (62) yielding a cell density estimate of 5×10^8. […]"}, "[2]": {"system": "P. aeruginosa biofilm", "test": "Optical density of P. aeruginosa biofilm", "details": "PodA vs inactive E154A; 1-OH-PHZ vs 1% DMSO"}, "[3]": {"system": "P. aeruginosa planktonic culture", "test": "Phenazines in planktonic P. aeruginosa cultures (HPLC)", "source_text": "Product was cut with DpnI to remove WT vector, phosphorylated with T4 polynucleotide kinase, and ligated to generate a circular mutant protein expression construct. For D72N and Y156F mutants, DNA fragments encoding the mutation were synthesized (Integrated DNA Technologies) and cloned into pET-20b(+) as for the wild type sequence. Enzymes for cloning were purchased from New England Biolabs. Constructs were transferred to E. coli BL21(DE3) for expression. All mutations were confirmed by Sanger sequencing (Laragen and Retrogen). When necessary, 100 μg mL^−1 carbenicillin was included in all growth media to maintain selection for the plasmid. To measure the effect of PodA30-162 on phenazine production in planktonically grown P. aeruginosa, cultures were grown overnight in 5 mL volumes of tryptic soy broth (TSB) or succinate minimal medium (arginine medium recipe from Glasser et al., 2014 with 40 mM sodium succinate in place of arginine) (3) in the presence 1 μg mL^−1 PodA30-162. Cells were removed by centrifugation and supernatants were analyzed by HPLC as previously described (9). See below for a description of biofilm growth of P. aeruginosa PA14. To induce protein expression, an overnight culture was inoculated 1/1000 in Terrific Broth (BD Difco). Cultures were grown in baffled Erlenmeyer flasks (1 L culture per 3 L flask) at 37° C. with 150 rpm agitation in a shaking incubator (Innova 44 shaking incubator, New Brunswick). After 3-4 hours, the temperature was changed to 16° C. and cultures were induced with 50 μM (final concentration) IPTG and left to incubate overnight. Cells were then pelleted by centrifugation, flash frozen in liquid N2, and stored at −80° C. for up to 1 month before protein purification."}},
  "note": "“Also recorded” adds a separate entry of the source.",
  "data": [
    {"molecule": "PodA30-162: truncated pyocyanin demethylase encoded by MFORT_14352 of Mycobacterium fortuitum lacking N-terminal helix, SEQ ID NO: 2 (protein, listed as Mycobacterium fortuitum) MDGRGGRSTTEPVTMTLDVKNDQVAKHDFGKPGMDVGDMDIFSDILSVDGKQVGYDGGACFFTNVTPDNPMTYCELTIHLDAGEIFARSLTPHTLAPFTMAITGGTGEYANSKGELTVSGVATPDEKYELKLTKAENLYFQ", "values": [
      {"measurement": "detectable biofilm aggregates at anoxic depths", "setting": "[1]", "result": "sharper decline in detectable aggregates; also recorded: apparent biomass defect specifically at anoxic depths"},
      {"measurement": "optical density of biofilm", "setting": "[2]", "result": "significantly decreased"},
      {"measurement": "total phenazine concentrations", "setting": "[3]; TSB", "result": "remain constant"},
      {"measurement": "enzyme stability in P. aeruginosa overnight culture", "setting": "[3]; TSB, enzyme added at start of culture", "result": "remained stable throughout the incubation period"},
      {"measurement": "effect on PYO in planktonic culture", "setting": "[3]; rich and minimal medium, 1 μg mL^−1 PodA30-162", "result": "conversion of PYO to 1-OH-PHZ"},
      {"measurement": "phenazine production", "setting": "[3]; tryptic soy broth, 24 hours", "result": "changes to the concentrations of all four phenazines"}
    ]}
  ]
}
